Consider eight molecules from US20210054049A1 (MERUS N V, published 2021).

The chains are these.
B1: PB27538p43 (bispecific antibody)
heavy (part 1 of 2) 1: EVQLVETGGGVVQPGRSLRLSCAASGFTFSQYAMHWVRQAPGKGLEWVAIISHDERNKYYVDSGMGRFTISRDNSKNTLFLQMNSLRSEDTAVYYCARDMRKGGYYYGFDVWGQGTTVTVSSASTKGPSVFPLAPSSKSTSGGTAALGCLVKDYFPEPVTVSWNSGALTSGVHTFPAVLQSSGLYSLSSVVTVPSSSLGTQTYICNVNHKPSNTKVDK
heavy (part 2 of 2) 1: not shown
heavy (part 1 of 2) 2: not shown
heavy (part 2 of 2) 2: not shown
light: not shown
notes: also called PB27538p44; PB27538p33
B2: PB27538p46 (bispecific antibody)
heavy (part 1 of 2) 1: B1 heavy (part 1 of 2) 1
heavy (part 2 of 2) 1: not shown
heavy (part 1 of 2) 2: not shown
heavy (part 2 of 2) 2: not shown
light: not shown
notes: also called PB27538p36; MG1516C3211 x MG3462C3215
B3: PB27538p45 (bispecific antibody)
heavy (part 1 of 2) 1: B1 heavy (part 1 of 2) 1
heavy (part 2 of 2) 1: not shown
heavy (part 1 of 2) 2: not shown
heavy (part 2 of 2) 2: not shown
light: not shown
notes: also called PB27538p35; MG1516C3210 x MG3462C3215
B4: PB27538p52 (bispecific antibody)
heavy (part 1 of 2) 1: B1 heavy (part 1 of 2) 1
heavy (part 2 of 2) 1: not shown
heavy (part 1 of 2) 2: not shown
heavy (part 2 of 2) 2: not shown
light: not shown
notes: also called PB27538p42; MG1516C3209 x MG3462C3221
B5: PB27538p49 (bispecific antibody)
heavy (part 1 of 2) 1: B1 heavy (part 1 of 2) 1
heavy (part 2 of 2) 1: not shown
heavy (part 1 of 2) 2: not shown
heavy (part 2 of 2) 2: not shown
light: not shown
notes: also called PB27538p39; MG1516C3209 x MG3462C3217
B6: PB27538p51 (bispecific antibody)
heavy (part 1 of 2) 1: B1 heavy (part 1 of 2) 1
heavy (part 2 of 2) 1: not shown
heavy (part 1 of 2) 2: not shown
heavy (part 2 of 2) 2: not shown
light: not shown
notes: also called PB27538p41; MG1516C3209 x MG3462C3219
B7: PB27538p50 (bispecific antibody)
heavy (part 1 of 2) 1: B1 heavy (part 1 of 2) 1
heavy (part 2 of 2) 1: not shown
heavy (part 1 of 2) 2: not shown
heavy (part 2 of 2) 2: not shown
light: not shown
notes: also called PB27538p40; MG1516C3209 x MG3462C3218
B8: PB27538p48 (bispecific antibody)
heavy (part 1 of 2) 1: B1 heavy (part 1 of 2) 1
heavy (part 2 of 2) 1: not shown
heavy (part 1 of 2) 2: not shown
heavy (part 2 of 2) 2: not shown
light: not shown
notes: also called PB27538p38; MG1516C3209 x MG3462C3216

The target in the assay is c-MET (UniProt P08581 25-932). Briefly: ELISA on c-MET coated plates. On the technique in general: ELISA stands for enzyme-linked immunosorbent assay.
c-MET, sequence (P08581 25-932 limits assumed): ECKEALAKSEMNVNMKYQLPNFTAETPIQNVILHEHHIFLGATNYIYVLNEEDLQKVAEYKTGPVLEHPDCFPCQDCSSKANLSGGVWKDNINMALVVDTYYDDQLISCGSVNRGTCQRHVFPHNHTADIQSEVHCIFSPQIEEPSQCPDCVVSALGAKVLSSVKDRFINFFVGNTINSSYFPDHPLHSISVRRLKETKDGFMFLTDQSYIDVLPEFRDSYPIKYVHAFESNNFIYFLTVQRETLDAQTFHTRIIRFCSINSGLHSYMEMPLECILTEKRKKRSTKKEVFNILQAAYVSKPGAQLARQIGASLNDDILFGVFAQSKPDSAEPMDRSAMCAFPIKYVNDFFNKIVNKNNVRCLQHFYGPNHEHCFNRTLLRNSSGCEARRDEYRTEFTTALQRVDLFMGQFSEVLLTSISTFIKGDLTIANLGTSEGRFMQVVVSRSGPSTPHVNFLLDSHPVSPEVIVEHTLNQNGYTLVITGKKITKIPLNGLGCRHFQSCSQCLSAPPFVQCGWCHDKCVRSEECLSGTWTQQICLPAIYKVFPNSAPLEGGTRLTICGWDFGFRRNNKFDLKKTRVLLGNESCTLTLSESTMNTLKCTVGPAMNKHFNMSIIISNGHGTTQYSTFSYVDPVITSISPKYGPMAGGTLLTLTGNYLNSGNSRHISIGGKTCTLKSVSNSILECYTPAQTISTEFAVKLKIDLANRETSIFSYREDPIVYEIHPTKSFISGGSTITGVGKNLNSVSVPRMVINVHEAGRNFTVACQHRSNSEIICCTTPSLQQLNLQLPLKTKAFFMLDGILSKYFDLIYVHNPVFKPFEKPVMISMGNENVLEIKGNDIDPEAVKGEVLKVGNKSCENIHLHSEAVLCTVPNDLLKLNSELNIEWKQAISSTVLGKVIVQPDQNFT
Turning to B1, the binding result was “binds”.
The entry for B2 is “binds”.
Consider B3, for which the binding result is “binds”.
The entry for B4 is “binds”; for B5 it is “binds”; for B6 it is “binds”.
The entry for B7 is “binds”; for B8 it is “binds”.
